# Read-outs that look alike come from different tables or passages of the source.
# B1: Eg5-513-GFP (domain or fragment, X. laevis)
# chain: MSSQNSFMASKKEDKGKNIQVVVRCRPFNQLERKASSHSVLECDSQRKEVYVRTGEVNDKLGKKTYTFDMVFGPAAKQIEVYRSVVCPILDEVIMGYNCTIFAYGQTGTGKTFTMEGERSSDEEFTWEQDPLAGIIPRTLHQIFEKLSENGTEFSVKVSLLEIYNEELFDLLSPSPDVGERLQMFDDPRNKRGVIIKGLEEISVHNKDEVYHILERGAARRKTASTLMNAYSSRSHSVFSVTIHMKETTVDGEELVKIGKLNLVDLAGSENIGRSGAVDKRAREAGNINQSLLTLGRVITALVERTPHIPYRESKLTRILQDSLGGRTKTSIIATVSPASINLEETVSTLDYANRAKSIMNKPEVNQKLTKKALIKEYTEEIERLKRELAAAREKNGVYLSSENYEQLQGKVLSQEEMITEYTEKITAMEEELKSISELFADNKKELEECTTILQCKEKELEETQNHLQESKEQLAQESFVVSAFETTEKKLHGTANKLLSTVRETTRDVSGLGSSGGGGSGGGGSGGGGS
# Legend:
# [1] = biological target: microtubules (Cy5-labeled tubulin from porcine brain) (porcine (purified from porcine brain)) (UniProt P02550); experiment: single-molecule fluorescence motility assay
# [2] = biological target: microtubules (Cy5-labeled tubulin from porcine brain) (porcine (purified from porcine brain)) (UniProt P02550); experiment: single-molecule fluorescence motility assay; remark: listed apart in the source
# [3] = biological target: the molecule itself; experiment: single-molecule fluorescence and photobleaching
molecule,measurement,setting,value
Eg5-513-GFP (from UniProt P28025 1-513) (domain or fragment),time bound to the microtubule,[1],< 2 s
full-length Xenopus laevis Eg5-GFP (from UniProt P28025 1-1067) (natural protein),average duration of motile events (binding events),[1],34 s
same,average duration of motile events (binding events),[2],16 s
B1,stoichiometry N,[3],2
